Experimental data published in PMC11145796, “Environmental activity-based protein profiling for function-driven enzyme discovery from natural communities” (Environmental Microbiome, 2024).

T1: putative esterase / UPF0227 protein ExploCarb_3811S_S4_483_length_13114_cov_941_5 (Sulfurihydrogenibium sp., UniProt A0A2J6WYH8)
T1 construct: gene C0178_06060
T1 sequence (A0A2J6WYH8 1-191): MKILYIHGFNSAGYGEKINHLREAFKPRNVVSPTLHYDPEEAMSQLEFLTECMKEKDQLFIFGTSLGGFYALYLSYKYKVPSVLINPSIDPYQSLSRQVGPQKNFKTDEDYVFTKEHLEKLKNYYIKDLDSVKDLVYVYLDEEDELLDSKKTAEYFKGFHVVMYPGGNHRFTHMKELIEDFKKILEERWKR

B1: putative esterase / UPF0227 protein ExploCarb_3811S_S4_483_length_13114_cov_941_5 (Sulfurihydrogenibium sp.) (protein)
chain: T1 sequence (A0A2J6WYH8 1-191)
notes: 191 amino acids; codon-optimized gene in pET-28b(+), expressed in E. coli Rosetta(DE3), purified; motif G63-T64-S65-L66-G67

Tests used:
[1] = biological target: T1, putative esterase / UPF0227 protein ExploCarb_3811S_S4_483_length_13114_cov_941_5
[2] = substrate: CC(=O)Oc1ccc([N+](=O)[O-])cc1; assay: pNP-ester hydrolysis kinetics; assay type: biochemical, Sulfurihydrogenibium sp.; details: pH 8.0, 70 °C, substrate up to 0.7 mM
[3] = substrate: CCCCCCCC(=O)Oc1ccc([N+](=O)[O-])cc1; assay: pNP-ester hydrolysis kinetics; assay type: biochemical, Sulfurihydrogenibium sp.; details: pH 8.0, 70 °C, substrate up to 0.7 mM
[4] = substrate: CCCC(=O)Oc1ccc([N+](=O)[O-])cc1; assay: pNP-ester hydrolysis kinetics; assay type: biochemical, Sulfurihydrogenibium sp.; details: pH 8.0, 70 °C, substrate up to 0.7 mM

Molecule	competition with FP-alkyne labelling of purified esterase (pre-incubation) [1]	Km [2] [µM]	Km [3] [µM]	Km [4] [µM]
CCOP(=O)(OCC)Oc1ccc([N+](=O)[O-])cc1 [paraoxon]	could be strongly diminished by pre-incubation with the generic serine esterase inhibitor paraoxon	–	–	–
B1	–	120	160	180
